In patent US20230151068A1 one finds enrichment score data, which are given here for 57 molecules.

The target in this test is biotinylated His-Avi-TEAD (194-411) (UniProt P28347). The test is described as follows: SSM screen, enrichment after two rounds of sorting.
Take GSPDEYIERAKECCKLGDIQCCLRYFEESGDPNVMLICLFCP (designed binder) [K14L variant of SEQ ID NO: 1]: the enrichment score was -0.89.

As for GSPDEYIERAKECCWKGDIQCCLRYFEESGDPNVMLICLFCP (designed binder) [K13W variant of SEQ ID NO: 1], the enrichment score was -2.99.

The molecule GSPDEYIERAKECCKKWDIQCCLRYFEESGDPNVMLICLFCP (designed binder) [G15W variant of SEQ ID NO: 1] gave an enrichment score of -4.75.

For GSPDEYIERAKECCKKGDIFCCLRYFEESGDPNVMLICLFCP (designed binder) [Q18F variant of SEQ ID NO: 1], the enrichment score was -4.21.

Regarding GSPDEYIERAKECCKKLDIQCCLRYFEESGDPNVMLICLFCP (designed binder) [G15L variant of SEQ ID NO: 1], the enrichment score was -0.59.

Consider GSPDEYIERAKECCFKGDIQCCLRYFEESGDPNVMLICLFCP (designed binder) [K13F variant of SEQ ID NO: 1], for which the enrichment score is -1.14.

With GSPDEYIERAKECCKVGDIQCCLRYFEESGDPNVMLICLFCP (designed binder) [K14V variant of SEQ ID NO: 1], the enrichment score is 0.08.

GSPDEDIERAKECCKKGDIQCCLRYFEESGDPNVMLICLFCP (designed binder) [Y04D variant of SEQ ID NO: 1]: the enrichment score is -1.79.

Take GSPDEYIERAKECCKKYDIQCCLRYFEESGDPNVMLICLFCP (designed binder) [G15Y variant of SEQ ID NO: 1]: the enrichment score is -1.14.

In the case of GSPDEYIERAKECCKKGYIQCCLRYFEESGDPNVMLICLFCP (designed binder) [D16Y variant of SEQ ID NO: 1], the enrichment score is -3.84.

The molecule GSPDEYIERAKECCVKGDIQCCLRYFEESGDPNVMLICLFCP (designed binder) [K13V variant of SEQ ID NO: 1] displayed an enrichment score of -1.65.

GSPDEYIERAKECCKKGDILCCLRYFEESGDPNVMLICLFCP (designed binder) [Q18L variant of SEQ ID NO: 1] had an enrichment score of -4.91.

GSPDEYIERAKECCKKGDIYCCLRYFEESGDPNVMLICLFCP (designed binder) [Q18Y variant of SEQ ID NO: 1] had an enrichment score of -8.35.

Take GSPDEYDERAKECCKKGDIQCCLRYFEESGDPNVMLICLFCP (designed binder) [I05D variant of SEQ ID NO: 1]: the enrichment score is -3.47.

As to GSPDEYIERAKECCKKGDIWCCLRYFEESGDPNVMLICLFCP (designed binder) [Q18W variant of SEQ ID NO: 1], the enrichment score was -11.1.

Regarding GSPDEYIERAKECCKKGLIQCCLRYFEESGDPNVMLICLFCP (designed binder) [D16L variant of SEQ ID NO: 1], the enrichment score was -8.99.

GSPDEYIERAKECCKKGDPQCCLRYFEESGDPNVMLICLFCP (designed binder) [I17P variant of SEQ ID NO: 1] came in with an enrichment score of -2.41.

Regarding GSPDEYIERAKECCPKGDIQCCLRYFEESGDPNVMLICLFCP (designed binder) [K13P variant of SEQ ID NO: 1], the enrichment score was -10.4.

On to GSPDEYIERAKECCKKGDIPCCLRYFEESGDPNVMLICLFCP (designed binder) [Q18P variant of SEQ ID NO: 1], for which the enrichment score was determined as 0.69.

As to GSPDEYIERAKECCKWGDIQCCLRYFEESGDPNVMLICLFCP (designed binder) [K14W variant of SEQ ID NO: 1], the enrichment score is -2.64.

GSPDEYIGRAKECCKKGDIQCCLRYFEESGDPNVMLICLFCP (designed binder) [E06G variant of SEQ ID NO: 1] had an enrichment score of -1.15.

GSPDEYIERAKECCKKGDFQCCLRYFEESGDPNVMLICLFCP (designed binder) [I17F variant of SEQ ID NO: 1]: the enrichment score is -3.5.

Molecule GSPDEYIERAKECCKKGWIQCCLRYFEESGDPNVMLICLFCP (designed binder) [D16W variant of SEQ ID NO: 1] displayed an enrichment score of -2.3.

GSPDEYIERAKECCKKGDLQCCLRYFEESGDPNVMLICLFCP (designed binder) [I17L variant of SEQ ID NO: 1] had an enrichment score of 1.28.

As for GSPEEYIERAKECCKKGDIQCCLRYFEESGDPNVMLICLFCP (designed binder) [D02E variant of SEQ ID NO: 1], the enrichment score is 1.16.

GSPDEYIERAKECCKFGDIQCCLRYFEESGDPNVMLICLFCP (designed binder) [K14F variant of SEQ ID NO: 1] displayed an enrichment score of -0.5.

In turn, GSPDEYIERAKECCKKGDWQCCLRYFEESGDPNVMLICLFCP (designed binder) [I17W variant of SEQ ID NO: 1] registered an enrichment score of -10.4.

Take GSPDEYIERAKECCKKGDVQCCLRYFEESGDPNVMLICLFCP (designed binder) [I17V variant of SEQ ID NO: 1]: the enrichment score is 4.17.

GSPDDYIERAKECCKKGDIQCCLRYFEESGDPNVMLICLFCP (designed binder) [E03D variant of SEQ ID NO: 1] had an enrichment score of 0.8.

Molecule GSGDEYIERAKECCKKGDIQCCLRYFEESGDPNVMLICLFCP (designed binder) [P01G variant of SEQ ID NO: 1] registered an enrichment score of 1.7.

With GSPDEYIERAKECCKYGDIQCCLRYFEESGDPNVMLICLFCP (designed binder) [K14Y variant of SEQ ID NO: 1], the enrichment score was -0.68.

GSEDEYIERAKECCKKGDIQCCLRYFEESGDPNVMLICLFCP (designed binder) [P01E variant of SEQ ID NO: 1] returned an enrichment score of 1.12.

Molecule GSPDEYIERAGECCKKGDIQCCLRYFEESGDPNVMLICLFCP (designed binder) [K09G variant of SEQ ID NO: 1] yielded an enrichment score of -0.48.

For GSPDEEIERAKECCKKGDIQCCLRYFEESGDPNVMLICLFCP (designed binder) [Y04E variant of SEQ ID NO: 1], the enrichment score was -6.52.

GSPDEYIERAKDCCKKGDIQCCLRYFEESGDPNVMLICLFCP (designed binder) [E10D variant of SEQ ID NO: 1] had an enrichment score of -0.89.

For the molecule GSPDEGIERAKECCKKGDIQCCLRYFEESGDPNVMLICLFCP (designed binder) [Y04G variant of SEQ ID NO: 1], the enrichment score was -2.21.

Turning to GSDDEYIERAKECCKKGDIQCCLRYFEESGDPNVMLICLFCP (designed binder) [P01D variant of SEQ ID NO: 1], the enrichment score was -0.65.

GSPDEYIEGAKECCKKGDIQCCLRYFEESGDPNVMLICLFCP (designed binder) [R07G variant of SEQ ID NO: 1] came in with an enrichment score of 1.31.

The molecule GSPDEYIERAKECCKKGVIQCCLRYFEESGDPNVMLICLFCP (designed binder) [D16V variant of SEQ ID NO: 1] yielded an enrichment score of -7.81.

In turn, GSPDEYIERAKECCKKPDIQCCLRYFEESGDPNVMLICLFCP (designed binder) [G15P variant of SEQ ID NO: 1] had an enrichment score of -1.25.

Turning to GSPDEYIDRAKECCKKGDIQCCLRYFEESGDPNVMLICLFCP (designed binder) [E06D variant of SEQ ID NO: 1], the enrichment score was -0.6.

For GSPDEYIERDKECCKKGDIQCCLRYFEESGDPNVMLICLFCP (designed binder) [A08D variant of SEQ ID NO: 1], the enrichment score was -4.17.

For GSPDEYIERAKECCKPGDIQCCLRYFEESGDPNVMLICLFCP (designed binder) [K14P variant of SEQ ID NO: 1], the enrichment score is -10.6.

For the molecule GSPDEYIERAKECCKKGDYQCCLRYFEESGDPNVMLICLFCP (designed binder) [I17Y variant of SEQ ID NO: 1], the enrichment score was -9.48.

In turn, GSPDEYIERAKECCKKGDIVCCLRYFEESGDPNVMLICLFCP (designed binder) [Q18V variant of SEQ ID NO: 1] came in with an enrichment score of -0.77.

For the molecule GSPDEYIERAKGCCKKGDIQCCLRYFEESGDPNVMLICLFCP (designed binder) [E10G variant of SEQ ID NO: 1], the enrichment score was -0.44.

In turn, GSPDEYIERAKECCYKGDIQCCLRYFEESGDPNVMLICLFCP (designed binder) [K13Y variant of SEQ ID NO: 1] gave an enrichment score of -1.29.

For GSPDEYIERAKECCKKVDIQCCLRYFEESGDPNVMLICLFCP (designed binder) [G15V variant of SEQ ID NO: 1], the enrichment score was 0.99.

In the case of GSPDGYIERAKECCKKGDIQCCLRYFEESGDPNVMLICLFCP (designed binder) [E03G variant of SEQ ID NO: 1], the enrichment score was -0.62.

Molecule GSPDEYIEDAKECCKKGDIQCCLRYFEESGDPNVMLICLFCP (designed binder) [R07D variant of SEQ ID NO: 1] had an enrichment score of -2.25.

GSPDEYGERAKECCKKGDIQCCLRYFEESGDPNVMLICLFCP (designed binder) [I05G variant of SEQ ID NO: 1] showed an enrichment score of -3.97.

Regarding GSPDEYIERADECCKKGDIQCCLRYFEESGDPNVMLICLFCP (designed binder) [K09D variant of SEQ ID NO: 1], the enrichment score is -0.58.

As for GSPGEYIERAKECCKKGDIQCCLRYFEESGDPNVMLICLFCP (designed binder) [D02G variant of SEQ ID NO: 1], the enrichment score is -0.32.

The molecule GSPDEYIERAKECCKKGPIQCCLRYFEESGDPNVMLICLFCP (designed binder) [D16P variant of SEQ ID NO: 1] registered an enrichment score of -4.62.

Consider GSPDEYIERAKECCKKFDIQCCLRYFEESGDPNVMLICLFCP (designed binder) [G15F variant of SEQ ID NO: 1], for which the enrichment score is -1.98.

As to GSPDEYIERAKECCKKGFIQCCLRYFEESGDPNVMLICLFCP (designed binder) [D16F variant of SEQ ID NO: 1], the enrichment score is -1.86.

GSPDEYIERGKECCKKGDIQCCLRYFEESGDPNVMLICLFCP (designed binder) [A08G variant of SEQ ID NO: 1]: the enrichment score was -4.11.
